Patent US20180125973A1 (AstraZeneca / MedImmune, published 2018)

Columns and labels:
Murine CD73 on cells = target: T1, Murine CD73 on cells (murine, UniProt Q61503 29-551); assay: cell-based or functional assay
T1 sequence (looked up): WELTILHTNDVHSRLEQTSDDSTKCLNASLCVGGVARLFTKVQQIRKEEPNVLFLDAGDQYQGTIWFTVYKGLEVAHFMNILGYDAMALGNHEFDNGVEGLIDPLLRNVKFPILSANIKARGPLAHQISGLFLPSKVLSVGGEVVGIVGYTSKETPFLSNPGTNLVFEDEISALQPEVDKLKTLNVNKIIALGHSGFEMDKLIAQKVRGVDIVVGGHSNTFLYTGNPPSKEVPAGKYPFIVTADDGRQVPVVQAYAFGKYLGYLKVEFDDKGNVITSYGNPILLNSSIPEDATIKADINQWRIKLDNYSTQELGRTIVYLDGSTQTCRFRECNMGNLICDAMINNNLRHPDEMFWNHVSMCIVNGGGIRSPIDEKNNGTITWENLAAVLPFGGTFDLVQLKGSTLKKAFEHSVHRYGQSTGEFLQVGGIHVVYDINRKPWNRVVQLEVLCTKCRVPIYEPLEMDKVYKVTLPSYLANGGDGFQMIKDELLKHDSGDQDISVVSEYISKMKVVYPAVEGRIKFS

Human CD73 on cells = target: T2, Human CD73 on cells (human, UniProt P21589 27-549); assay: cell-based or functional assay
T2 sequence: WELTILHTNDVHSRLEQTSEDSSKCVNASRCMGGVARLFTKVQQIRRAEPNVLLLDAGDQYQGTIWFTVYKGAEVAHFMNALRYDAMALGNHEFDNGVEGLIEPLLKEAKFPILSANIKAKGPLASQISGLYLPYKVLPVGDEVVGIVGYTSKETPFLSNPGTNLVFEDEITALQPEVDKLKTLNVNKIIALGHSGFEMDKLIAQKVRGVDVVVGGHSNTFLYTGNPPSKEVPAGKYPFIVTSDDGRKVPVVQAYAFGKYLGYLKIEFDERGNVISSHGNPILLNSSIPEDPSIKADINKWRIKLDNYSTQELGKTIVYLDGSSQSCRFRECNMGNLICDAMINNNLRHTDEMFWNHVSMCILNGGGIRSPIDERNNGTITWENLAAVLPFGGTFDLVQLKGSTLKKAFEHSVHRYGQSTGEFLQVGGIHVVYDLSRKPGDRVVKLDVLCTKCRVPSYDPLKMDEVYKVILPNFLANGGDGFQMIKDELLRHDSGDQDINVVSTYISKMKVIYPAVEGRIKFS

B1: MEDI9447 (antibody, human IgG1, lambda, V domains shown)
VH: EVQLLESGGGLVQPGGSLRLSCAASGFTFSSYAYSWVRQAPGKGLEWVSAISGSGGRTYYADSVKGRFTISRDNSKNTLYLQMNSLRAEDTAVYYCARLGYGRVDEWGRGTLVTVSS
VL: QSVLTQPPSASGTPGQRVTISCSGSLSNIGRNPVNWYQQLPGTAPKLLIYLDNLRLSGVPDRFSGSKSGTSASLAISGLQSEDEADYYCATWDDSHPGWTFGGGTKLTVLG
Antibody-mediated internalization of cytotoxic FabZAP reagent into 4T1 cells, EC50 (Murine CD73 on cells): 0.0185 nM | Antibody-mediated internalization of cytotoxic FabZAP reagent into MDA-MB-231 cells, EC50 (Human CD73 on cells): 0.0035 nM
